Data published in US20090176209A1.

Molecular target: scArc-Vκ(E5)-HA fusion protein (Vκ(E5) fused to the C-terminus of scArc; pIE3AVκ(E5) series constructs) (phage P22)
Assay: emulsion expression of the pIE3a^4AVκ(E5)-derived template; capture on 3F10-coated PCR tubes; quantitative PCR

percent of the total input genetic element DNA recovered in complex with the fusion protein on the mAb-coated surface: > 23%
Substance: αHA rat mAb 3F10 (Roche), High Affinity anti-HA monoclonal antibody
